{"source": "paper PMC4569481", "target": "Dihydrolipoamide dehydrogenase (Lpd) of P. aeruginosa, recombinant full length (Lpd^1-478) (P. aeruginosa strain PAO1) (UniProt Q9I3D1)", "sequence (Q9I3D1 whole entry, the tested form may be a part)": "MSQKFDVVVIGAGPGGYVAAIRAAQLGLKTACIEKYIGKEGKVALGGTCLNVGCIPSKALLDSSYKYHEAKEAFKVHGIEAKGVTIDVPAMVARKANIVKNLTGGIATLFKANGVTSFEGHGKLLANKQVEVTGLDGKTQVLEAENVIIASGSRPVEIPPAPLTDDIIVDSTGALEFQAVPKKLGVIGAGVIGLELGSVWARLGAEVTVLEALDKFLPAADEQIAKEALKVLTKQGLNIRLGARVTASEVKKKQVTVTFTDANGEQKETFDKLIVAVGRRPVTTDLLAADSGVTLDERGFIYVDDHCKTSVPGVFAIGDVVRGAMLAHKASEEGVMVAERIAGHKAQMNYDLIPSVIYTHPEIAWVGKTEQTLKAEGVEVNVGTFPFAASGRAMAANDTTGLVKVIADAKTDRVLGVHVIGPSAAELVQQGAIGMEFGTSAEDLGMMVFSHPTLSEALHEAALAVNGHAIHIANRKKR", "experiment": "ELISA; Lpd (5 μg/ml) coated on microtiter plates overnight at 4°C; vitronectin (0.01–12.5 μg/ml), recombinant vitronectin constructs (5 μg/ml) or clusterin (0.01–20 μg/ml) added 1 h at RT; detected with antibodies, absorbance at 492 nm", "data": [{"substance": "vitronectin^80-353 (domain or fragment)", "values": [{"measurement": "percent reduction of binding (ELISA signal; reference not named)", "value": 70, "unit": "%"}]}]}
